Assays:
[1] = biological target: T1, BKV serotype IV (ST4) virus-like particles (VLPs) (BK virus serotype IV, UniProt P14996 1-362); assay: ELISA on plates coated with BKV ST1 or ST4 VLPs (100 ng/well)
T1 construct: VLP made by expressing VP1 in Sf9 insect cells and composed of 72 VP1 pentamers; also called BKV ST4 VLP; BKV ST4
Description: The binding of antibodies to VLPs were analyzed by ELISA. Briefly, Nunc MaxiSorp 384-well plates (Thermo Scientific) were coated with 100 ng/well BKV VLPs to BK serotype I (ST1) or serotype IV (ST4) overnight. Antibodies were serially diluted in PBS with 0.5% BSA and allowed to bind antigen-coated plates for 2 hours. […] Plates were washed with PBS and tetramethylbenzidine (TMB) microwell peroxidase substrate (SeramunBlau Fast, Seramun, Germany) was used to develop the reactions.

[2] = biological target: T2, BKV serotype I (ST1) virus-like particles (VLPs) (BK virus serotype I, UniProt P03088 1-362); assay: solution equilibration titration (SET), antibody 1 pM, BKV VLPs in solution, MSD read-out
T2 construct: VLP made by expressing VP1 in Sf9 insect cells and composed of 72 VP1 pentamers; also called BKV ST1 VLP; BKV ST1
T2 chain: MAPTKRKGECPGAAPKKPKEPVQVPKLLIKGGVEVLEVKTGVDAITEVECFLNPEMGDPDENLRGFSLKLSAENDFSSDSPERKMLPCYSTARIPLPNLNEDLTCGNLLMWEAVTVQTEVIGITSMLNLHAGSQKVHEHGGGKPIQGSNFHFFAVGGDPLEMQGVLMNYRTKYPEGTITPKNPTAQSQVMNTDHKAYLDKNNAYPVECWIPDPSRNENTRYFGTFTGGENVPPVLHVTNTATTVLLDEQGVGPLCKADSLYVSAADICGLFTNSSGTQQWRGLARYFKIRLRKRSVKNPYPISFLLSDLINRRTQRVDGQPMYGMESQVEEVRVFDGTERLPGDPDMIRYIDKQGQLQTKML

JC virus (JCV) = JC virus (JCV) (JC virus, UniProt P03089 1-354); assay: cell-based or functional assay
[3] = biological target: T1, BKV serotype IV (ST4) virus-like …; assay: solution equilibration titration (SET) with BKV VLPs

B1: NOV638 (antibody, V domains shown)
VH: QVQLVQSGAEVKKPGASVKVSCKASGYTFTSYDIIWVRQATGQGLEWMGRMNPTGGNTDYVPKFQGRVTMTRDISLSTAYMELRSLTSEDTAVFYCARGVKSLGVSEIDYWGQGTLVTVSS
VL: QSALTQPPSVSAAPGQKVTISCSGSTSNIANNYVLWYQQLPGTAPKLLIYDNNKRPSGIPDRFSGSKSGTSATLGITGLQTADEADYYCGTWDNSLSVGVFGGGTKLTVLG
notes: also called antibody NOV638
[1]
  binding result: no binding

B2: NOV530 (antibody, V domains shown)
VH: QVQLQESGPGLVKPSQTLSLTCTVSGGSISGGGYYWSWIRQHPGKGLEFIGYIYYNRGTYYNPALKSRLTISVDTSKNDFSLKLSSVSAADTAVYYCARCVLGGYGSDAFDRWGQGTTVTVAS
VL: EIVLTQSPVTLSLSPGERAILSCRASQSVSSHLAWYQQKPGQAPRLLIYDASSRANGIPARFSGSGSGTDFTLTISSLAPEDFAVYYCQQRSSWPPSLTFGGGTKVEIRR
notes: also called antibody NOV530; cross-neutralizing IgG NOV530
[2]
  Kd: < 0.05 nM
JC virus (JCV)
  EC50 of virus neutralization: < 1 nM

B3: NOV581 (antibody, V domains shown)
VH: QVQLVESGGGLVQPGGSLRLSCVASGFTFSGYNMHWVRQAPGKGLEWVSYISNSGRTIYYADSVKGRFTLSRDNAKNSLYLQMNSLRAEDTAVYFCARDRDPQWLGNDALQIWGQGTMVTVSS
VL: EIVLTQSPGTLSLSPGERATLSCRASQSVSSGYLAWYQQKPGQAPRLLIYGASSRATGIPDRFSGSGSGTDFTLTISRLEPEDFAVYYCQQYGTSRKTFGQGTKVEIKR
notes: also called antibody NOV581; clone NOV581
[3]
  binding result: no binding
[2]
  Kd: < 0.05 nM
